According to patent publication US20040052799A1, “Nucleic acid and amino acid sequences relating to Helicobacter pylori for diagnostics and therapeutics” (Astra Aktiebolag, priority 1996, published 2004):

Legend:
[1] = substrate: N[C@H](CCC(=O)O)C(=O)O; assay: Glutamate racemase activity, conversion of D-glutamate to L-glutamate (two enzyme and single enzyme coupled assays); assay type: biochemical, H. pylori; details: other: purified recombinant enzyme; 37.0 °C
Description: The activity of glutamate racemase, interconversion of the enantiomers of glutamic acid, was measured using D-glutamic acid as substrate. The method of Gallo and Knowles (Gallo, K. A. and Knowles, J. R., 1993, Biochmistry 32, 3981-3990) that was used to measure the glutamate racemase activity of Lactobacillus fermenti was adapted for the measurement of glutamate racemase activity of the H. pylori murI gene product isolated as a recombinant protein from E. coli. […] Initial rates were determined by following the increase in absorbance at 500 nm in a reaction volume of 200 μl containing 50 mM Tris-HCl, pH 7.8, 4% v/v glycerol, 10 mM NAD, 2 mM INT, 60 Units/ml L-glutamate dehydrogenase, 5 Units/ml diaphorase, and varying concentrations of either substrate (from 0.063 mM to 250 mM D-glutamic acid) or purified enzyme (from 1 μg to 50 μg). After a preincubation of all reagents except either the substrate (D-glutamic acid) or the enzyme (murI gene product) for a period of 5 minutes, reactions were initiated by adding the missing ingredient (i.e., the enzyme or the subtrate, as required), and the increase in optical density at 500 nm was measured in a Microplate Spectophotometer System (Molecular Devices, Spectra MAX 250). Measurements were followed for 20 minutes, and initial velocities were derived by calculating the maximum slope for the absorbance increases. […]

[2] = substrate: N[C@@H](CC=O)C(=O)O; assay: Asd assay, reverse reaction, NADPH formation; assay type: biochemical, E. coli; details: other: pH 7.5

B1: H. pylori glutamate racemase (murI gene product) (Helicobacter pylori J99) (protein)
chain: MKIGVFDSGVGGFSVLKSLLKARLFDEIIYYGDSARVPYGTKDPTTIKQFGLEALDFFKPHEIELLIVACNTASALALEEMQKYSKIPIVGVIEPSILAIKRQVEDKNAPILVLGTKATIQSNAYDNALKQQGYLNISHLATSLFVPLIEESILEGELLETCMHYYFTPLEILPEVIILGCTHFPLIAQKIEGYFMGHFALPTPPLLIHSGDAIVEYLQQKYALKNNACTFPKVEFHASGDVIWLERQAKEWLKL
notes: made in house; host or cells: E. coli BL21(DE3) carrying pET-23-murI and pACYC-groE (GroES/GroEL co-expressed)
Protein B1 has a Km [1] of 100 µM.

B2: E. coli Asd (Escherichia coli K-12) (protein)
chain: MKNVGFIGWRGMVGSVLMQRMVEERDFDAIRPVFFSTSQLGQAAPSFGGTTGTLQDAFDLEALKALDIIVTCQGGDYTNEIYPKLRESGWQGYWIDAASSLRMKDDAIIILDPVNQDVITDGLNNGIRTFVGGNCTVSLMLMSLGGLFANDLVDWVSVATYQAASGGGARHMRELLTQMGHLYGHVADELATPSSAILDIERKVTTLTRSGELPVDNFGVPLAGSLIPWIDKQLDNGQSREEWKGQAETNKILNTSSVIPVDGLCVRVGALRCHSQAFTIKLKKDVSIPTVEELLAAHNPWAKVVPNDREITMRELTPAAVTGTLTTPVGRLRKLNMGPEFLSAFTVGDQLLWGAAEPLRRMLRQLA
notes: made in house; host or cells: E. coli HMS174 pLysS, pET28b
For B2, the Km [2] was 104 µM.
